These results are taken from patent US20250282828A1, “PEPTIDES FOR THE TREATMENT OF RESPIRATORY INFECTIONS OF VIRAL ORIGIN” (CENTRO DE INGENIERÍA GENÉTICA Y BIOTECNOLOGÍA, priority 2020, published 2025).

Like-named read-outs stand apart in the source and are kept apart here. Positions of bridges follow the written chain, without caps; N, C: chain ends. Residues, ends and D or L forms follow the SMILES beside them. No end group written: not given here. Bounds are passed on as bounds.

Assay [1] has as its system SARS-CoV-2. Description: microbe, parasite or virus in culture. The following applies: Severe acute respiratory syndrome coronavirus 2, Vero C1008, read-out: IC50 Compound.
The test system of assay [2] is SARS-CoV-2.
The test system of the next assay is viral proteins. Description: BIACORE surface plasmon resonance interaction, all proteins evaluated. The class given is binding. In general terms: Surface plasmon resonance follows binding to a sensor surface in real time, without labels.
Assay [3] relates to SARS-CoV-2. This is another data set of the same source.
For assay [4], the system named is SARS-CoV-2. The following applies: 96 h, 100 μM.
The target in assay [5] is T1, nucleocapsid protein of the SARS-CoV-2 virus (N protein) (SARS-CoV-2), P0DTC9. Description: SPR (BIACORE); Peptide SEQ ID NO: 1.
Assay [6] concerns the target T2, Dengue 2 virus capsid protein (Dengue virus 2), P29990.
T2 chain: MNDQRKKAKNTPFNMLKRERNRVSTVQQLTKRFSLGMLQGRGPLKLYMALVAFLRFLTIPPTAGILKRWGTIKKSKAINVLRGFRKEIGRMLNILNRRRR
The experiment in a line: SPR (BIACORE); Peptide SEQ ID NO: 1.

Assay [7] has as its target T3, envelope protein of the Zika virus (ZIKV E) (Zika virus), Q32ZE1.
T3 chain: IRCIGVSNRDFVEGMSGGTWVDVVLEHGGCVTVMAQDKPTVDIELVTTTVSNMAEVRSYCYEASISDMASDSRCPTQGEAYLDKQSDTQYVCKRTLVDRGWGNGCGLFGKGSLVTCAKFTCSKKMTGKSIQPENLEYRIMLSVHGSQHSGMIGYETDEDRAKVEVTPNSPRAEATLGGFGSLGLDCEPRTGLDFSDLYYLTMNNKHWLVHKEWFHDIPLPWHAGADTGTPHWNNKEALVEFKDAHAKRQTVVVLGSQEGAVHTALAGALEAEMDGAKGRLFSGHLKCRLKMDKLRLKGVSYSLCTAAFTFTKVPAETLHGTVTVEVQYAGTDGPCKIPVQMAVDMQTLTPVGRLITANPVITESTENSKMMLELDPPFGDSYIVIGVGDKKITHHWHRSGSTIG
The experiment in a line: SPR (BIACORE).

The target of assay [8] is T4, non-structural protein 1 of the Dengue virus 2 (NS1-D2) (Dengue virus 2), P29990.
T4 chain: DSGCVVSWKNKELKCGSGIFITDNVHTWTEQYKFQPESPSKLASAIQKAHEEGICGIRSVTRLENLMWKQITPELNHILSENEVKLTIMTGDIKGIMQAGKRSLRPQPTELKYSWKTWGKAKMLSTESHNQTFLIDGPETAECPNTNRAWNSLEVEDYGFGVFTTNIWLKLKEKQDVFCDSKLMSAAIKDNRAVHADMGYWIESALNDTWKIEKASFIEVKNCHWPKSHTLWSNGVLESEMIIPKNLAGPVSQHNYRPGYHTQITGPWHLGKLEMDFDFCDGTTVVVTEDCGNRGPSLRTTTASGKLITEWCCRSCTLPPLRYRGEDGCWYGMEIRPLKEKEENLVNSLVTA

The target in assay [9] is T3, envelope protein of the Zika virus ….
For assay [10], the target named is T2, Dengue 2 virus capsid protein (Dengue …).
In assay [11] the target is T1, nucleocapsid protein of the SARS-CoV-2 ….
The target is the same in assay [12]. Description: SPR (BIACORE).
For assay [13], the target named is T2, Dengue 2 virus capsid protein (Dengue …). Description: SPR (BIACORE).
Assay [14] deals with T1, nucleocapsid protein of the SARS-CoV-2 …. The experiment in a line: SPR (BIACORE); Peptide SEQ ID NO: 2.
In assay [15] the target is T2, Dengue 2 virus capsid protein (Dengue …). Description: SPR (BIACORE); Peptide SEQ ID NO: 2.

For `NC(=O)c1nc(F)c[nH]c1=O` [Favipiravir], the IC50 with SARS-CoV-2 [1] was 65.3 µM.
Turning to `N=C(N)c1ccc2cc(OC(=O)c3ccc(N=C(N)N)cc3)ccc2c1` [Nafamostat], in the assay on SARS-CoV-2 [1], the IC50 is 20.1 µM.
On to `CSCC[C@@H]1NC(=O)[C@H](Cc2c[nH]c3ccccc23)NC(=O)[C@@H](NC(=O)[C@H](C)NC(=O)[C@H](CCC(N)=O)NC(=O)[C@@H]2CCCN2C(=O)[C@@H]2CCCN2C(=O)[C@H](CCCNC(=N)N)NC(=O)[C@H](CCCNC(=N)N)NC(=O)[C@H](CCCNC(=N)N)NC(=O)[C@H](CCC(N)=O)NC(=O)[C@H](CCCNC(=N)N)NC(=O)[C@H](CCCNC(=N)N)NC(=O)[C@H](CCCCN)NC(=O)[C@H](CCCCN)NC(=O)[C@H](CCCNC(=N)N)NC(=O)CN)CSSC[C@@H](C(=O)O)NC(=O)[C@H]([C@@H](C)O)NC(=O)CNC(=O)[C@H](CC(C)C)NC(=O)[C@H](Cc2c[nH]cn2)NC(=O)[C@H](CCCNC(=N)N)NC(=O)[C@@H]2CCCN2C(=O)[C@H](CO)NC1=O` [Peptide SEQ ID NO: 23] (H-GRKKRRQRRRPPQACWMSPRHLGTC-OH; disulfide 15-25; N-terminus and C-terminus assumed), for which, in the assay with SARS-CoV-2 [2], the half-maximal inhibitory concentration (IC50) was found to be 3.8 µM.
On to `CCC(CC)COC(=O)[C@H](C)N[P@](=O)(OC[C@H]1O[C@@](C#N)(c2ccc3c(N)ncnn23)[C@H](O)[C@@H]1O)Oc1ccccc1` [Remdisivir], for which the IC50 in the assay with SARS-CoV-2 [1] stood at 2.4 µM.
Still for that read-out and setting: the value for `NC(=O)c1ncn([C@@H]2O[C@H](CO)[C@@H](O)[C@H]2O)n1` [Ribavirin] was 40.2 µM.
For Ivermectin, the IC50 with SARS-CoV-2 [2] (read-out: IC50 Compound + peptide SEQ ID NO: 1, in presence of peptide SEQ ID NO: 1 at 10 μM, VeroE6) worked out at 0.21 µM; in the assay on SARS-CoV-2 [2] (read-out: IC50 Compound + peptide SEQ ID NO: 2, in presence of peptide SEQ ID NO: 2, VeroE6) it was 0.15 µM; in the assay with SARS-CoV-2 [2] (read-out: IC50 Compound + peptide SEQ ID NO: 3, in presence of peptide SEQ ID NO: 3, VeroE6), 0.2 µM; with SARS-CoV-2 [2] (read-out: IC50 Compound, compound alone, VeroE6) it was 2.7 µM.
As for RVTQMNLNDRLASLADKV [SEQ ID NO: 22], in the assay on viral proteins, the “interaction with the proteins evaluated” value is on record as “did not interact”. The “inhibition of SARS-CoV-2 in primary cultures of human airway epithelium” value in the assay on SARS-CoV-2 [3] is given as ≤ 20%. Further, in the assay with SARS-CoV-2 [4], the Inhibition % is listed as 20.2%.
Regarding RVTQMNLNDRLASLYDKV (modifications not checked) [peptide identified in the Sequence Listing as SEQ ID NO: 1], the Kd in assay [5] was 0.00358 µM; in [6] it was 0.00167 µM; in assay [7], 1.59 µM; in assay [8] it was 0.769 µM; in assay [9], 1.59 µM; in assay [10] it was 0.00167 µM. In [11], the Kd is 0.00358 µM. Also, the off-rate constant (koff) is 1.02e-05 s⁻¹ in assay [8], 0.00154 s⁻¹ in [9], 0.000413 s⁻¹ in assay [10] and 0.000972 s⁻¹ in [11]. Further, the on-rate (kon) is 965 M⁻¹ s⁻¹ in assay [9], 247000 M⁻¹ s⁻¹ in assay [10] and 271000 M⁻¹ s⁻¹ in assay [11].
On to NDRLASLYDKV (modifications not checked) [Peptide SEQ ID NO: 14], for which the figures for the Kd in assay [7], in assay [12] and in assay [13] were 3.2 µM, 1.14 µM and 5.91 µM, respectively.
As to NLNDRLASLYDKV (modifications not checked) [Peptide SEQ ID NO: 15], the Kd is 0.0624 µM in assay [7], 7.82 µM in assay [12] and 1.27 µM in assay [13].
With RVTQMNLNDRLASLYDKV (modifications not checked) [Peptide SEQ ID NO: 2], the Kd in [7] was 18.2 µM; in assay [14], 0.523 µM; in assay [15] it was 0.754 µM.

What is called IC50 is the point on the concentration scale where inhibition reaches its midpoint. What is called Kd is the free concentration of one partner at which half of the binding sites on the other are occupied at equilibrium, for simple one-to-one binding. Read a low Kd as higher affinity. As usually defined, the koff is a measure of how fast the partners let go of each other. Usually kon stands for a measure of how fast the partners come together. A low value points to slower complex formation.
